Measured values from patent US20190322705A1 (NORWEGIAN UNIVERSITY OF LIFE SCIENCES, published 2019).

T1: RseP of E. faecalis HExxH>AAxxA, expressed in S. pneumoniae ms5 (Enterococcus faecalis, UniProt Q9RPP2 1-422)
T1 sequence: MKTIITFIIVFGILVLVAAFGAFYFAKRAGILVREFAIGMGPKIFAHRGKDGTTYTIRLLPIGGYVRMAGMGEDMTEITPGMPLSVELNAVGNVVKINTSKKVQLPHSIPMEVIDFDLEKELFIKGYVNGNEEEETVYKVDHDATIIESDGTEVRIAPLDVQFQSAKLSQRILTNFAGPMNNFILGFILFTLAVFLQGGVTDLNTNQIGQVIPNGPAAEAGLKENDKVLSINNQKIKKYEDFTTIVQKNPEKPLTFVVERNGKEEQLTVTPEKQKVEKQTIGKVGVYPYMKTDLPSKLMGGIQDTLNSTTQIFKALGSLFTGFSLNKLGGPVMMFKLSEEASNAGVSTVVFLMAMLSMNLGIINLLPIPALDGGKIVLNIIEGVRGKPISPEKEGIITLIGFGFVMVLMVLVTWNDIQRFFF


Legend:
Assay in all cases: cell-based or functional assay
[1] = target: RseP of E. faecalis LMGT3358 (WT rseP), expressed in S. pneumoniae ds220 (Enterococcus faecalis) (UniProt Q9RPP2)
[2] = target: RseP of E. faecalis Y24>A, expressed in S. pneumoniae ms4 (Enterococcus faecalis) (UniProt Q9RPP2)
[3] = target: RseP of E. faecalis H18>A, expressed in S. pneumoniae ms1 (Enterococcus faecalis) (UniProt Q9RPP2)
[4] = target: RseP of E. faecalis H22>A, expressed in S. pneumoniae ms3 (Enterococcus faecalis) (UniProt Q9RPP2)
[5] = target: RseP of E. faecalis E19>A, expressed in S. pneumoniae ms2 (Enterococcus faecalis) (UniProt Q9RPP2)
[6] = target: RseP of E. faecalis HExxH>AAxxA, expressed in S. pneumoniae ms5 (Enterococcus faecalis) (UniProt Q9RPP2)
[7] = target: T1, RseP of E. faecalis HExxH>AAxxA, …

Molecule | MIC (nM), S. pneumoniae ds220 induced [1] [nM] | MIC (nM), S. pneumoniae ms4 [2] [nM] | MIC (nM), S. pneumoniae ms1 [3] [nM] | MIC (nM), S. pneumoniae ms3 [4] [nM] | MIC (nM), S. pneumoniae ms2 [5] [nM] | MIC (nM), S. pneumoniae ms5 [6] [nM] | fold resistance against the WT RseP strain [7] [times]
LsbB (peptide) | > 7000 | > 7000 | > 7000 | > 7000 | > 7000 | > 7000 | –
MLAKIKAMIKKFPNPYTLAAKLTTYEINWYKQQYGRYPWERPVA [EntEJ97] | – | – | – | – | – | – | 30
